Legend:
[1] = tested on: Ku70/80 heterodimer (paper assigns Ku70 XRCC5, Ku80 XRCC6); test: EMSA; settings: Invitrogen non-radioactive EMSA kit (SYBR), 25 min at 25 C (stated for nuclear extract), 2.2-2.5% agarose; buffer, salt and pH not given
[2] = tested on: Nucleolin; test: EMSA; settings: Invitrogen non-radioactive EMSA kit (SYBR), 25 min at 25 C (stated for nuclear extract), 2.2-2.5% agarose; buffer, salt and pH not given

IFIH1 rs13023380 A allele PCR product showed a binding signal (fraction of G allele binding) [1] of 0.5 and a binding signal (fraction of G allele binding) [2] of 0.5.

— PMC3575474
